± gives the standard deviation of the averaged measurements.
How the values were obtained:
[1] = system: VchCAST RNA-guided transposition machinery (E. coli BL21(DE3) host, lacZ target); assay: relative integration efficiency (T-LR orientation) vs wild-type transposon end (log2 (normalized fold change)); transposon end mutated: right end (5 bp flank + 75 bp right end); higher = more efficient transposition
In short: (§1)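 Pools of 1549 left-end or 1849 right-end barcoded transposon variants were cloned into a pUC57 mini-transposon donor and co-transformed into E. coli BL21(DE3) with a T7-driven effector plasmid carrying a CRISPR array, tniQ-cas8-cas7-cas6 and tnsA-tnsB-tnsC. Plating used 0.1 mM IPTG at 37°C for 18 h, and input plasmids and genomic integration junctions were PCR-amplified for Illumina sequencing, with two biological output replicates and four reference barcodes. Relative integration efficiency is the log-transformed fold change of output over input barcode abundance, normalised to the reference barcodes.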

[2] = system: VchCAST RNA-guided transposition machinery (E. coli BL21(DE3) host, lacZ target); assay: relative integration efficiency (T-RL orientation) vs wild-type transposon end (log2 (normalized fold change)); transposon end mutated: right end (5 bp flank + 75 bp right end); higher = more efficient transposition
In short: as §1

Sequence	relative integration efficiency (log2) [1]	relative integration efficiency (log2) [2]
ACATTTGTTGATACAACCATAAGTTGATATTTTCACCCATAAATTGATATTGCTCACACCCATAAATTGATAATTACTCTGATCATAGTCAGACCAACATTGCTACGACCCGTATTCGCACCGACAC	0.36 ± 0.054	-0.658 ± 0.16
ACATTTGTTGATACAACCATAAGTTGATATTTTCACCCATAAATTGATATTGCTCACACCCATAAATTGATATTGCCTCTGATCATAGTCAGACCAACATTGCTACGACCCGTATTCGCACCGACAC	0.258 ± 0.12	-0.468 ± 0.17
ACATTTGTTGATACAACCATAAGTTGATATTTTCACCCATAAATTGATATTGCTCAGTGGGTATTTAACTATAACGCTCTGATCATAGTCAGACCAACATTGCTACGACCCGTATTCGCACCGACAC	2.31 ± 0.065	-1.19 ± 0.12
ACATTTGTTGATACAACCATAATATGATAATTACACCCATAATTTGATAATTATCACACCCATAATTTGATATTGCCTCTGATCATAGTCAGACCAACATTGCTACGACCCGTATTCGCACCGACAC	-0.428 ± 0.015	-0.262 ± 0.035
ACATTTGTTGATACAACCATAATTACATAATTACACCCATAAATTGATAATTATCACACCCATAAATTGATATTGCCTCTGATCATAGTCAGACCAACATTGCTACGACCCGTATTCGCACCGACAC	-2.85 ± 0.16	-2.32 ± 0.15
ACATTTGTTGATACAACCATAATTTGATAATTACACCCATAAATTGATAATTATCACACCCATAAATTGATATTGCCTCTGATCATAGTCAGACCAACATTGCTACGACCCGTATTCGCACCGACAC	-0.168 ± 0.26	-0.314 ± 0.1
ACATTTGTTGATACAACCATAATTTGATAATTACACCCATAATATGATAATTATCACACCCATAATATGATATTGCCTCTGATCATAGTCAGACCAACATTGCTACGACCCGTATTCGCACCGACAC	-0.228 ± 0.16	-0.651 ± 0.15
ACATTTGTTGATACAACCATACAATGATAATTACACCCATACATTGATAATTATCACACCCATACATTGATATTGCCTCTGATCATAGTCAGACCAACATTGCTACGACCCGTATTCGCACCGACAC	-1.3 ± 0.016	-2.95 ± 0.34
ACATTTGTTGATACAACCATACCATGATAATTACACCCATAAATTGATAATTATCACACCCATAAATTGATATTGCCTCTGATCATAGTCAGACCAACATTGCTACGACCCGTATTCGCACCGACAC	-1.98 ± 0.24	-1.34 ± 0.079
ACATTTGTTGATACAACCATACCATGATAATTACACCCATACCTTGATAATTATCACACCCATACCTTGATATTGCCTCTGATCATAGTCAGACCAACATTGCTACGACCCGTATTCGCACCGACAC	-1.75 ± 0.22	-3.2 ± 0.16
ACATTTGTTGATACAACCATACCCGGATAATTACACCCATAAATTGATAATTATCACACCCATAAATTGATATTGCCTCTGATCATAGTCAGACCAACATTGCTACGACCCGTATTCGCACCGACAC	-4.39 ± 0.99	-3.77 ± 0.26
ACATTTGTTGATACAACCATACCCGTCGCCGGCACAAACGCCCGGTCGCCGGCGACACAAACGCCCGGTCGCGGTAAGAGGATCATAGTCAGACCAACATTGCTACGACCCGTATTCGCACCGACAC	-4.78 ± 0.59	-6.48 ± 0.07
ACATTTGTTGATACAACCATACCCTGATAATTACACCCATACCGTGATAATTATCACACCCATACCGTGATATTGCCTCTGATCATAGTCAGACCAACATTGCTACGACCCGTATTCGCACCGACAC	-2.37 ± 1	-4.24 ± 0.2
ACATTTGTTGATACAACCATATAATGATAATAACACCAATAAAATGATAATTATCACACCCAATTTAACTATAACGCTCTGATCATAGTCAGACCAACATTGCTACGACCCGTATTCGCACCGACAC	1.887 ± 0.0053	-1.09 ± 0.33
ACATTTGTTGATACAACCATATAATGATAATAACACCCATAAAATGATAATTATCACACCCAATTTAACTATAACGCTCTGATCATAGTCAGACCAACATTGCTACGACCCGTATTCGCACCGACAC	2.16 ± 0.14	-1.15 ± 0.33
ACATTTGTTGATACAACCATATAATGATAATAACACCCCTAAAATGATAATTATCACACCCAATTTAACTATAACGCTCTGATCATAGTCAGACCAACATTGCTACGACCCGTATTCGCACCGACAC	0.598 ± 0.1	-2.99 ± 0.37
ACATTTGTTGATACAACCATATAATGATAATAACACCGATAAAATGATAATTATCACACCCAATTTAACTATAACGCTCTGATCATAGTCAGACCAACATTGCTACGACCCGTATTCGCACCGACAC	1.74 ± 0.093	-1.46 ± 0.28
ACATTTGTTGATACAACCATATAATGATAATTACACCCATATATTGATAATTATCACACCCATATATTGATATTGCCTCTGATCATAGTCAGACCAACATTGCTACGACCCGTATTCGCACCGACAC	0.24 ± 0.36	0.0833 ± 0.11

Sequence	relative integration efficiency (log2) [1]	relative integration efficiency (log2) [2]
ACATTTGTTGATACAACCATATATTGATATCTCCAACCATAAAATGATAATTATCACAACCATAAAATGATAATTACTCTGATCATAGTCAGACCAACATTGCTACGACCCGTATTCGCACCGACAC	-0.314 ± 0.062	-0.172 ± 0.01
ACATTTGTTGATACAACCATATATTGATATCTCCAACCATAAAATGATAATTATCACAACCATAAAGTGATATTTACTCTGATCATAGTCAGACCAACATTGCTACGACCCGTATTCGCACCGACAC	-0.441 ± 0.36	-0.115 ± 0.074
ACATTTGTTGATACAACCATATATTGATATCTCCAACCATAAAATGATAATTATCACAACCATAAGTTGATATTTTCTCTGATCATAGTCAGACCAACATTGCTACGACCCGTATTCGCACCGACAC	-0.357 ± 0.16	-0.491 ± 0.098
ACATTTGTTGATACAACCATATATTGATATCTCCAACCATAAAATGATAATTATCACAACCATATATTGATATCTCCTCTGATCATAGTCAGACCAACATTGCTACGACCCGTATTCGCACCGACAC	-0.283 ± 0.24	-0.5854 ± 0.0047
ACATTTGTTGATACAACCATATATTGATATCTCCAACCATAAAATGATAATTATCACACCCATAAATTGATAATTACTCTGATCATAGTCAGACCAACATTGCTACGACCCGTATTCGCACCGACAC	-0.0737 ± 0.099	-0.0947 ± 0.0052
ACATTTGTTGATACAACCATATATTGATATCTCCAACCATAAAATGATAATTATCACACCCATAAATTGATATTGCCTCTGATCATAGTCAGACCAACATTGCTACGACCCGTATTCGCACCGACAC	-0.381 ± 0.023	-0.212 ± 0.018
ACATTTGTTGATACAACCATATATTGATATCTCCAACCATAAAATGATAATTATCAGTGGGTATTTAACTATAACGCTCTGATCATAGTCAGACCAACATTGCTACGACCCGTATTCGCACCGACAC	2.32 ± 0.29	-1.15 ± 0.24
ACATTTGTTGATACAACCATATATTGATATCTCCAACCATAAAGTGATATTTATCACAACCATAAAATGATAATTACTCTGATCATAGTCAGACCAACATTGCTACGACCCGTATTCGCACCGACAC	-0.762 ± 0.065	-0.716 ± 0.2
ACATTTGTTGATACAACCATATATTGATATCTCCAACCATAAAGTGATATTTATCACAACCATAAAGTGATATTTACTCTGATCATAGTCAGACCAACATTGCTACGACCCGTATTCGCACCGACAC	-0.451 ± 0.11	-0.409 ± 0.1
ACATTTGTTGATACAACCATATATTGATATCTCCAACCATAAAGTGATATTTATCACAACCATAAGTTGATATTTTCTCTGATCATAGTCAGACCAACATTGCTACGACCCGTATTCGCACCGACAC	0.0054 ± 0.55	0.261 ± 0.2
ACATTTGTTGATACAACCATATATTGATATCTCCAACCATAAAGTGATATTTATCACAACCATATATTGATATCTCCTCTGATCATAGTCAGACCAACATTGCTACGACCCGTATTCGCACCGACAC	-0.237 ± 0.36	-0.515 ± 0.17
ACATTTGTTGATACAACCATATATTGATATCTCCAACCATAAAGTGATATTTATCACACCCATAAATTGATAATTACTCTGATCATAGTCAGACCAACATTGCTACGACCCGTATTCGCACCGACAC	-0.426 ± 0.18	-0.578 ± 0.023
ACATTTGTTGATACAACCATATATTGATATCTCCAACCATAAAGTGATATTTATCACACCCATAAATTGATATTGCCTCTGATCATAGTCAGACCAACATTGCTACGACCCGTATTCGCACCGACAC	-0.302 ± 0.25	-0.42 ± 0.096
ACATTTGTTGATACAACCATATATTGATATCTCCAACCATAAAGTGATATTTATCAGTGGGTATTTAACTATAACGCTCTGATCATAGTCAGACCAACATTGCTACGACCCGTATTCGCACCGACAC	2.59 ± 0.059	-0.927 ± 0.29
ACATTTGTTGATACAACCATATATTGATATCTCCAACCATAAGTTGATATTTTTCACAACCATAAAATGATAATTACTCTGATCATAGTCAGACCAACATTGCTACGACCCGTATTCGCACCGACAC	-0.448 ± 0.2	-0.279 ± 0.084
ACATTTGTTGATACAACCATATATTGATATCTCCAACCATAAGTTGATATTTTTCACAACCATAAAGTGATATTTACTCTGATCATAGTCAGACCAACATTGCTACGACCCGTATTCGCACCGACAC	-0.0291 ± 0.26	-0.225 ± 0.017
ACATTTGTTGATACAACCATATATTGATATCTCCAACCATAAGTTGATATTTTTCACAACCATAAGTTGATATTTTCTCTGATCATAGTCAGACCAACATTGCTACGACCCGTATTCGCACCGACAC	-0.31 ± 0.26	-0.0557 ± 0.027

From the supplement of paper PMC10201428
